In paper PMC5043372 (2016):
Non-standard residues stand in square brackets, D forms with d. No end group written: not given here. pY = N[C@@H](Cc1ccc(OP(=O)(O)O)cc1)C(=O)O

T1: SH2 domain of Monosiga brevicollis crka1 (Monosiga brevicollis, UniProt A0A1C9VNP8 1-97)
T1 chain: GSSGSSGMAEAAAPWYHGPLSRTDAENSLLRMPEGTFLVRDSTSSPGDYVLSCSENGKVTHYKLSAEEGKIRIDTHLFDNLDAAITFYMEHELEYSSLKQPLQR

B1: Bcar1 Y169 (peptide)
chain: DL[pY]QVPPG
B2: Dok7 Y396 (peptide)
chain: AE[pY]QVPTS
B3: phosphotyrosyl peptide from M. musculus Dok7 (Y406) (peptide)
chain: HH[pY]DTPRS
B4: p130Cas (Bcar1) Y310 peptide SV-pYDVP-PS (peptide)
chain: SV[pY]DVPPS
B5: EPHB6 Y635 peptide QQ-pYSSP-GL (peptide)
chain: QQ[pY]SSPGL
B6: Dok7 (Y396) peptide AE-pYQVP-TS (peptide)
chain: AE[pY]QVPTS
B7: CRK Y221 peptide GP-pYAQP-SV (peptide)
chain: GP[pY]AQPSV
B8: phosphotyrosyl peptide from M. musculus Bcar1 (p130Cas, Y238) (peptide)
chain: DE[pY]DTPRH
B9: p130Cas (Bcar1) Y376 peptide DL-pYDVP-PG (peptide)
chain: DL[pY]DVPPG
B10: p130Cas (Bcar1) Y169 peptide DL-pYQVP-PG (peptide)
chain: DL[pY]QVPPG
B11: ROR1 Y789 peptide PN-pYMFP-SQ (peptide)
chain: PN[pY]MFPSQ
B12: PLCG1 Y509 peptide PH-pYFVL-TS (peptide)
chain: PH[pY]FVLTS
B13: PDGFRB Y771 peptide SN-pYMAP-YD (peptide)
chain: SN[pY]MAPYD
B14: ZAP70 Y315 peptide SV-pYESP-YS (peptide)
chain: SV[pY]ESPYS
B15: paxillin (PXN) Y118 peptide HV-pYSFP-NK (peptide)
chain: HV[pY]SFPNK
B16: p130Cas (Bcar1) Y291 peptide DV-pYDVP-PS (peptide)
chain: DV[pY]DVPPS
B17: PDGFRA Y762 peptide SL-pYDRP-AS (peptide)
chain: SL[pY]DRPAS
B18: p130Cas (Bcar1) Y271 peptide EV-pYDTP-PM (peptide)
chain: EV[pY]DTPPM
B19: PLCG1 Y1253 peptide SR-pYQQP-FE (peptide)
chain: SR[pY]QQPFE
B20: phosphopeptide DM-pYDVP-RN of S. rosetta PTSG_05573 (peptide)
peptide: DM[pY]DVPRN
B21: FRS2 Y349 peptide LN-pYENL-PS (peptide)
chain: LN[pY]ENLPS
B22: phosphopeptide EM-pYDVP-RS of S. rosetta PTSG_05573 (peptide)
peptide: EM[pY]DVPRS

target: T2, SH2 domain of human CRK (human, UniProt P46108 13-118); assay: ITC
T2 sequence (P46108 other isoform, or with tags, fused parts or gaps): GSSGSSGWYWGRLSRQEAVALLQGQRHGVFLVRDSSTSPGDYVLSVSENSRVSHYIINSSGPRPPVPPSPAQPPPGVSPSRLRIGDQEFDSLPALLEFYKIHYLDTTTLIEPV

Ka [M⁻¹] | Binder
460000 | B1
2.34e+06 | B2

target: T3, SH2 domain of human CRKL (human, UniProt P46109 14-102); assay: ITC
T3 sequence (P46109 other isoform, or with tags, fused parts or gaps): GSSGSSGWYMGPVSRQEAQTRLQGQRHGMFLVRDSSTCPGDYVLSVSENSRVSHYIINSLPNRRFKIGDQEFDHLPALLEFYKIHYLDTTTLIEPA

Ka [M⁻¹] | Binder
9.16e+06 | B3
1.53e+06 | B2

Target: T1, SH2 domain of Monosiga brevicollis crka1
Assay: ITC

Ka [M⁻¹] | Binder
116000 | B3
23300 | B2

target: T2, SH2 domain of human CRK; assay: ITC; remark: another data set of the same source

Kd [µM] | Binder
0.649 | B4
5.21 | B5
0.427 | B6
0.0602 | B3
10.2 | B7
0.127 | B8
4.83 | B9
2.17 | B10
8.85 | B11
8.93 | B12
25.1 | B13
4.44 | B14
2.48 | B15
0.455 | B16
0.98 | B17
1.07 | B18
6.45 | B19

target: T3, SH2 domain of human CRKL; assay: ITC; remark: another data set of the same source

Kd [µM] | Binder
0.654 | B6
0.109 | B3
0.368 | B8
1.06 | B16
9.8 | B19

Target: T1, SH2 domain of Monosiga brevicollis crka1
Assay: ITC
Remark: another data set of the same source

Kd [µM] | Binder
42.9 | B6
8.62 | B3
10.1 | B8
61.7 | B20
126 | B21
118 | B22
